Patent US10702610B2, “Method of making sulfur-containing polymers from hexahydrotriazine and dithiol precursors” (International Business Machines Corporation, priority 2015, dated 2020)
No end group written: not given here.

Assays:
[1] = tested on: human embryonic kidney cells from cell line HEK293; assay: incubation with HEK293 cells, cell viability; format: cell-based
Method: (§1) To investigate toxicity of the polymer-peptide product, the polymer-peptide product was dissolved in a simulated physiological environment comprising 10% prenatal bovine serum in a phosphate-buffered saline solution. […] The polymer-peptide products was also incubated with human embryonic kidney cells from cell line HEK293 for 24 hours, after which more than 90% cell viability was observed.

[2] = dissolution in simulated physiological environment (10% prenatal bovine serum in phosphate-buffered saline), precipitation/aggregation; format: physicochemical; conditions: over 24 hours
Method: as §1

hemolysis = format: cell-based; conditions: doses up to 1000 mg/L
Method: as §1

With “peptide: thiol-containing amphiphilic alpha-helical peptide SEQ. ID: NO: 1-NH2 (CLLKKLLKKC-NH2; cysteine pairing not given here) [reference compound]” the cell viability ([1]; HEK293, dose of 50 mg/L) was “below 70%”.

In the case of “polymer-peptide product: peptide SEQ. ID: NO: 1-NH2 attached to water-soluble polythioaminal polymer 4a (CLLKKLLKKC-NH2; cysteine pairing not given here; also: attached to polythioaminal polymer 4a)”, the “precipitation or aggregation in solution” value [2] is reported as “No precipitation or aggregation was observed”, the cell viability ([1]; HEK293, 200 mg/L, similar incubation period) is reported as “more than 80%” and the cell viability ([1]; HEK293, incubated 24 hours, dose not stated) is reported as “more than 90%”. For the same substance, the hemolysis (hemolysis) was “No hemolysis was observed”.
